From patent US20120191435A1 (SHANGHAI NATIONAL ENGINEERING RESEARCH CENTER OF ANTIBODY …, published 2012) come the findings set out here.

Assay [1] deals with T1, biotin labeled antigen peptide (a fragment of the CD20 extracellular domain) (human, UniProt P11836 163-187, limits assumed, biotin labeled (position not given)).
T1 construct: domain: a fragment of the CD20 extracellular domain; also called short peptide CD20; CD20 antigen
T1 peptide (looked up): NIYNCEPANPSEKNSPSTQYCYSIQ
Briefly: Biacore SPR, biotin-CD20 peptide on SA chip, antibody in flow.

Assay [2] concerns the target T1, biotin labeled antigen peptide (a …). Briefly: Biacore SPR, biotin-CD20 peptide on SA chip; ratio against commercially available rituximab. On the technique in general: In SPR one partner is held on a chip, and binding of the other changes the refractive index at the surface.
The target is the same in assay [3]. The assay is described as follows: Biacore SPR, biotin-CD20 peptide on SA chip; ratio against un-mutated C2B8 (WT).

B1: anti-CD20 chimeric antibody Rituximab (C2B8), un-mutated, expressed in CHO-K1 cells in this filing (antibody, human IgG1, kappa, V domains shown)
VH: QVQLQQPGAELVKPGASVKMSCKASGYTFTSYNMHWVKQTPGRGLEWIGAIYPGNGDTSYNQKFKGKATLTADKSSSTAYMQLSSLTSEDSAVYYCARSTYYGGDWYFNVWGAGTTVTVSA
VL: QIVLSQSPAILSASPGEKVTMTCRASSSVSYIHWFQQKPGSSPKPWIYATSNLASGVPVRFSGSGSGTSYSLTISRVEAEDAATYYCQQWTSNPPTFGGGTKLEIKR
notes: Whole chimeric IgG1 kappa; also called WT; un-mutated C2B8
On to B1, for which the Kd in assay [1] was 44.1 nM.

B2: C2B8 antibody mutant Rmut4 (H102YR) (antibody, V domains shown)
VH: QVQLQQPGAELVKPGASVKMSCKASGYTFTSYNMHWVKQTPGRGLEWIGAIYPGNGDTSYNQKFKGKATLTADKSSSTAYMQLSSLTSEDSAVYYCARSTYRGGDWYFNVWGAGTTVTVSA
VL: QIVLSQSPAILSASPGEKVTMTCRASSSVSYIHWFQQKPGSSPKPWIYATSNLASGVPVRFSGSGSGTSYSLTISRVEAEDAATYYCQQWTSNPPTFGGGTKLEIK
Consider B2, for which, in assay [2], the KdRitu/Kdmutant came out at 2.23. In addition, in assay [3], the KdWT/Kdmutant came to 1.75.

B3: C2B8 antibody mutant Rmut2 (H55NR) (antibody, V domains shown)
VH: QVQLQQPGAELVKPGASVKMSCKASGYTFTSYNMHWVKQTPGRGLEWIGAIYPGRGDTSYNQKFKGKATLTADKSSSTAYMQLSSLTSEDSAVYYCARSTYYGGDWYFNVWGAGTTVTVSA
VL: QIVLSQSPAILSASPGEKVTMTCRASSSVSYIHWFQQKPGSSPKPWIYATSNLASGVPVRFSGSGSGTSYSLTISRVEAEDAATYYCQQWTSNPPTFGGGTKLEIK
With B3, the KdRitu/Kdmutant in assay [2] amounted to 0.78. The KdWT/Kdmutant in assay [3] came out at 0.61.

B4: C2B8 antibody mutant Rmut1 (H55NE) (antibody, V domains shown)
VH: QVQLQQPGAELVKPGASVKMSCKASGYTFTSYNMHWVKQTPGRGLEWIGAIYPGEGDTSYNQKFKGKATLTADKSSSTAYMQLSSLTSEDSAVYYCARSTYYGGDWYFNVWGAGTTVTVSA
VL: QIVLSQSPAILSASPGEKVTMTCRASSSVSYIHWFQQKPGSSPKPWIYATSNLASGVPVRFSGSGSGTSYSLTISRVEAEDAATYYCQQWTSNPPTFGGGTKLEIK
Take B4: the KdRitu/Kdmutant in assay [2] came out at 0.69. Moreover, in assay [3], the KdWT/Kdmutant amounted to 0.54.

B5: C2B8 antibody mutant Rmut5 (H102YS) (antibody, V domains shown)
VH: QVQLQQPGAELVKPGASVKMSCKASGYTFTSYNMHWVKQTPGRGLEWIGAIYPGNGDTSYNQKFKGKATLTADKSSSTAYMQLSSLTSEDSAVYYCARSTYSGGDWYFNVWGAGTTVTVSA
VL: QIVLSQSPAILSASPGEKVTMTCRASSSVSYIHWFQQKPGSSPKPWIYATSNLASGVPVRFSGSGSGTSYSLTISRVEAEDAATYYCQQWTSNPPTFGGGTKLEIK
As to B5, the KdRitu/Kdmutant in assay [2] is 2.35. Moreover, in assay [3], the KdWT/Kdmutant came out at 1.85.

B6: C2B8 antibody mutant Rmut7 (H102YK) (antibody, V domains shown)
VH: QVQLQQPGAELVKPGASVKMSCKASGYTFTSYNMHWVKQTPGRGLEWIGAIYPGNGDTSYNQKFKGKATLTADKSSSTAYMQLSSLTSEDSAVYYCARSTYKGGDWYFNVWGAGTTVTVSA
VL: QIVLSQSPAILSASPGEKVTMTCRASSSVSYIHWFQQKPGSSPKPWIYATSNLASGVPVRFSGSGSGTSYSLTISRVEAEDAATYYCQQWTSNPPTFGGGTKLEIK
B6: the KdRitu/Kdmutant in assay [2] turned out to be 5.04. The KdWT/Kdmutant in assay [3] was 3.96.

B7: C2B8 antibody mutant Rmut3 (H57DE) (antibody, V domains shown)
VH: QVQLQQPGAELVKPGASVKMSCKASGYTFTSYNMHWVKQTPGRGLEWIGAIYPGNGETSYNQKFKGKATLTADKSSSTAYMQLSSLTSEDSAVYYCARSTYYGGDWYFNVWGAGTTVTVSA
VL: QIVLSQSPAILSASPGEKVTMTCRASSSVSYIHWFQQKPGSSPKPWIYATSNLASGVPVRFSGSGSGTSYSLTISRVEAEDAATYYCQQWTSNPPTFGGGTKLEIK
As for B7, in assay [2], the KdRitu/Kdmutant stood at 7.73. The KdWT/Kdmutant in assay [3] was found to be 6.08.

B8: C2B8 antibody mutant Rmut6 (H102YT) (antibody, V domains shown)
VH: QVQLQQPGAELVKPGASVKMSCKASGYTFTSYNMHWVKQTPGRGLEWIGAIYPGNGDTSYNQKFKGKATLTADKSSSTAYMQLSSLTSEDSAVYYCARSTYTGGDWYFNVWGAGTTVTVSA
VL: QIVLSQSPAILSASPGEKVTMTCRASSSVSYIHWFQQKPGSSPKPWIYATSNLASGVPVRFSGSGSGTSYSLTISRVEAEDAATYYCQQWTSNPPTFGGGTKLEIK
With B8, the KdRitu/Kdmutant in assay [2] came to 2.34. In addition, the KdWT/Kdmutant in assay [3] is 1.84.

As usually defined, the Kd is a measure of binding affinity in units of concentration. A high value points to a looser complex.
